Data from publication PMC6411835 (Nucleic Acids Research, 2018).
Blank lines part the entries; values can stand above or below the binder they belong to.

B2: Zip2^499–704 (domain or fragment)
chain: ENKCIAVNENKVIENQKVIQSLCKNSHLDLIEQSYFGECDFIINHSTCVYKIQASRFMQLRNNGSLHYDKAVNDLLTEFQRVIIIVEFSEIIQDVDPDLFWKIKLYLLNSRVDVFFIHETTDFFIDWMKYFIARWAFSYNDEKEKNIANADILLDLGFNILLVRKIFQTYSLEEFFMAIIKEESKAVKMLTVSQMTRLKKLLTLEW
B3: His6-Spo16 (natural protein)
chain: SEFFWDVQKIQEISNVEEHSVVKCVTVNTSRLISQLNEELQDEESGVNFIVTQLQLLINNVYEKIQKSPGVPAHRSLMINLNFTRLKFSIAYWDILLERSLDLINGPSKTGARYFITEVTPVDRSRYVENNQYFLAFKANQRLTRNSVDMDEFIDFEILIKQIIFDLFKKNGIPDQDFEAILSRFHNLESLVVAFNE

Experiments:
[1] = molecular target: T1, surface-lysine methylated Zip2^499–704 (S. cerevisiae, UniProt P53061 499-704); experiment: crystal structure
T1 sequence: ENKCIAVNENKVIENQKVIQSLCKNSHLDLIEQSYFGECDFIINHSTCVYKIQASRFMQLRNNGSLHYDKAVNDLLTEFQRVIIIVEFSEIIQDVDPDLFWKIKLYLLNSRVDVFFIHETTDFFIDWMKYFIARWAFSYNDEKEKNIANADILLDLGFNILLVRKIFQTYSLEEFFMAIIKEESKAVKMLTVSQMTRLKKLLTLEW

His6-Spo16 = molecular target: B3; experiment: SEC-MALS
Zip2^499–704 = molecular target: B2; experiment: co-purification after co-expression

- binding result [1]: binds
B1: surface-lysine methylated His6-Spo16 (natural protein)
chain: SEFFWDVQKIQEISNVEEHSVVKCVTVNTSRLISQLNEELQDEESGVNFIVTQLQLLINNVYEKIQKSPGVPAHRSLMINLNFTRLKFSIAYWDILLERSLDLINGPSKTGARYFITEVTPVDRSRYVENNQYFLAFKANQRLTRNSVDMDEFIDFEILIKQIIFDLFKKNGIPDQDFEAILSRFHNLESLVVAFNE
modifications: surface lysine residues dimethylated (dimethyllysine)

Binder: B2
- stoichiometry N (His6-Spo16): 1

Binder: B3
- binding result (Zip2^499–704): binds
